Values belong to the binder of their own block, whether it stands above or below them.
Tests used:
[1] = biological target: T1, S. cerevisiae Dhh1 residues 30-425 (DEAD-box core, RecA1 and RecA2) (S. cerevisiae, UniProt P39517 30-425); assay: pull-down
T1 sequence: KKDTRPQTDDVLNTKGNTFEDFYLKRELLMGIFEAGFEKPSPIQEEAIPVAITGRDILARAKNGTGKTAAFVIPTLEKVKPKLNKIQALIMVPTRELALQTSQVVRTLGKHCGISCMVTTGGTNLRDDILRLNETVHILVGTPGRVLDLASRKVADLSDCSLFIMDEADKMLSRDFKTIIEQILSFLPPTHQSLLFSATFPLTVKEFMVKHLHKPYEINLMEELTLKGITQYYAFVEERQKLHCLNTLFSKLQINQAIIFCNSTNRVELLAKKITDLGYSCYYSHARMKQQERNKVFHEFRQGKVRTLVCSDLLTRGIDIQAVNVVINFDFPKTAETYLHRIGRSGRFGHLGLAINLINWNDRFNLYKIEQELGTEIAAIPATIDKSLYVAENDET

[2] = biological target: T1, S. cerevisiae Dhh1 residues 30-425 …; assay: SEC
[3] = biological target: T1, S. cerevisiae Dhh1 residues 30-425 …; assay: ITC
[4] = biological target: T2, S. cerevisiae Dhh1 residues 46-422 K234D, V238D (S. cerevisiae, UniProt P39517 46-422, K234D | V238D); assay: crystal structure
T2 sequence: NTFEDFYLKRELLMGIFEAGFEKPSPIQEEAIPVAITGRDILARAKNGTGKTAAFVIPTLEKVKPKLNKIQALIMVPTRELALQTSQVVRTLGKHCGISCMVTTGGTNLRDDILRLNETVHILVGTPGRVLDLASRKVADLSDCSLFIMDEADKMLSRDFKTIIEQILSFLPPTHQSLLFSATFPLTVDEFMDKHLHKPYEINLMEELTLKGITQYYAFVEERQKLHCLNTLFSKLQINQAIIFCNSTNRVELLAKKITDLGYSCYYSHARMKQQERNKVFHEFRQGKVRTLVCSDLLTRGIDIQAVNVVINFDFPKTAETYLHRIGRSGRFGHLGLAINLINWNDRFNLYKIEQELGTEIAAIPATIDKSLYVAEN

[5] = biological target: T3, S. cerevisiae Dhh1 residues 251-425 (RecA2 domain) (S. cerevisiae, UniProt P39517 251-425); assay: ITC
T3 sequence: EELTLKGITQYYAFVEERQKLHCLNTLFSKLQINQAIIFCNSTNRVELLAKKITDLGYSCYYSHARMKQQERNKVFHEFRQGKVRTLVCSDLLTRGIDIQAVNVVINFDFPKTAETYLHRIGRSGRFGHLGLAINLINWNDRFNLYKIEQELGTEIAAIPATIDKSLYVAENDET

- binding result [1]: binds
B1: GST-tagged S. cerevisiae Pat1 residues 1-114 (N-terminal domain) (domain or fragment)
chain: MSFFGLENSGNARDGPLDFEESYKGYGEHELEENDYLNDETFGDNVQVGTDFDFGNPHSSGSSGNAIGGNGVGATARSYVAATAEGISGPRTDGTAAAGPLDLKPMESLWSTAP

- binding result [2]: binds
B2: S. cerevisiae Pat1 residues 1-114, as in the purified complex with Dhh1 30-425 used for limited proteolysis (domain or fragment)
chain: MSFFGLENSGNARDGPLDFEESYKGYGEHELEENDYLNDETFGDNVQVGTDFDFGNPHSSGSSGNAIGGNGVGATARSYVAATAEGISGPRTDGTAAAGPLDLKPMESLWSTAP

- Kd [3]: 0.2 µM
B3: S. cerevisiae Edc3 residues 77-158, as used for ITC (domain or fragment)
chain: QQNDYNQNRGEHIDWQDDDVSKIKQQEDFDFQRNLGMFNKKDVFAQLKQNDDILPENRLQGHNRKQTQLQQNNYQNDELVIP

- binding result [1]: binds
B4: GST-tagged S. cerevisiae Pat1 residues 1-56 (domain or fragment)
chain: MSFFGLENSGNARDGPLDFEESYKGYGEHELEENDYLNDETFGDNVQVGTDFDFGN

- binding result [4]: binds
Binder: QQNDYNQNRGEHIDWQDDDVSKIKQQEDFDFQRNLGMFNK (domain or fragment) [S. cerevisiae Edc3 residues 77-116, as crystallized]

- binding result [4]: binds
B5: S. cerevisiae Pat1 residues 5-79, as crystallized (domain or fragment)
chain: GLENSGNARDGPLDFEESYKGYGEHELEENDYLNDETFGDNVQVGTDFDFGNPHSSGSSGNAIGGNGVGATARSY

- Kd [5]: 0.032 µM
B6: His6-SUMO-tagged S. cerevisiae Pat1 residues 5-79 (domain or fragment)
chain: GLENSGNARDGPLDFEESYKGYGEHELEENDYLNDETFGDNVQVGTDFDFGNPHSSGSSGNAIGGNGVGATARSY
